According to the RNAGym collection of RNA variant scans (doi:10.7554/elife.80360):

B1: HDV Ribozyme (parent)
chain: GGCCGGCAUGGUCCCAGCCUCCUCGCUGGCGCCGGCUGGGCAACAUUCCGAGGGGACCGUCCCCUCGGUAAUGGCGAAUGGGACCCA

Variants of: B1
Assay: self-cleavage, relative activity (ratio to wild type); higher = more cleavage; co-transcriptional

| Variant | self-cleavage |
| --- | --- |
| GGCCGGCAUGGUCCCAGCCUCCUCGCUGGCGCCGGCUGGGCAACAUUCCAAGGGGACCGUCCCCUCGGUAAUGGCGUAUGGGACCCA | 0.721 |
| GGCCGGCAUGGUCCCAGCCUCCUCGCUGGCGCCGGCUGGGCAACAUUCUGAGGGGACCGUCCCCGCGGUAAUGGCGAAUGGGACCCA | 0.939 |
| GGCCGGCAUGGUCCCAGCCUCCUCGCUGGCGCCGGCUGGGCAACAUUCCAAGGGGACCGUCCCCUCGGUAAUGGCGAAUGGCACCCA | 0.409 |
| GGCCGGCAUGGUCCCAGCCUCCUCGCUGGCGCCGGCUGGGCAACAUUCUGAGGGGACCGUCCCCUCGGUAAUGACGAAUGGGACCCA | 0.443 |
| GGCCGGCAUGGUCCCAGCCUCCUCGCUGGCGCCGGCUGGGCAACAUUCUGAGGGGACCGUCCCCUCGGUAAUGCCGAAUGGGACCCA | 0.374 |
| GGCCGGCAUGGUCCCAGCCUCCUCGCUGGCGCCGGCUGGGCAACAUUCCAAAGGGACCGUCCCCUCGGUAAUGGCGAAUGGGACCCA | 0.888 |
| GGCCGGCAUGGUCCCAGCCUCCUCGCUGGCGCCGGCUGGGCAACAUUCUGAGGGGACCGUCCCCUCGGUAAUGGCGAAUUGGACCCA | 0.219 |
| GGCCGGCAUGGUCCCAGCCUCCUCGCUGGCGCCGGCUGGGCAACAUUCUGAGGGGACCGUCCCCUCGGUAAUGGCGAAUCGGACCCA | 0.143 |
| GGCCGGCAUGGUCCCAGCCUCCUCGCUGGCGCCGGCUGGGCAACAUUCCAAGGGGACCGUCCCCUCGGUAAUUGCGAAUGGGACCCA | 0.369 |
| GGCCGGCAUGGUCCCAGCCUCCUCGCUGGCGCCGGCUGGGCAACAUUCCAAGGGGACCGUCCCCUCGGUAAUAGCGAAUGGGACCCA | 0.623 |
| GGCCGGCAUGGUCCCAGCCUCCUCGCUGGCGCCGGCUGGGCAACAUUCCAAGGGGACCGUCCCCUCGGUAAUCGCGAAUGGGACCCA | 0.436 |
| GGCCGGCAUGGUCCCAGCCUCCUCGCUGGCGCCGGCUGGGCAACAUUCCCAGGGGACCGUCCCCUAGGUAAUGGCGAAUGGGACCCA | 0.812 |
| GGCCGGCAUGGUCCCAGCCUCCUCGCUGGCGCCGGCUGGGCAACAUUCCCAGGGGACCGUCCCCUUGGUAAUGGCGAAUGGGACCCA | 0.954 |
| GGCCGGCAUGGUCCCAGCCUCCUCGCUGGCGCCGGCUGGGCAACAUUCCCAGGGGACCGUCCCCUCGGUAAUGGCGAUUGGGACCCA | 0.131 |
| GGCCGGCAUGGUCCCAGCCUCCUCGCUGGCGCCGGCUGGGCAACAUUCUGAGGGGACCGUCCCCUCGGUAAUCGCGAAUGGGACCCA | 0.409 |
| GGCCGGCAUGGUCCCAGCCUCCUCGCUGGCGCCGGCUGGGCAACAUUCUGAGGGGACCGUCCCCUCGGUAAUAGCGAAUGGGACCCA | 0.716 |
| GGCCGGCAUGGUCCCAGCCUCCUCGCUGGCGCCGGCUGGGCAACAUUCCCAGGGGACCGUCCCCUCGGUAAUGGCGUAUGGGACCCA | 0.554 |
| GGCCGGCAUGGUCCCAGCCUCCUCGCUGGCGCCGGCUGGGCAACAUUCCCAGGGGACCGUCCCCUCGGUAAUGGCGGAUGGGACCCA | 0.665 |
| GGCCGGCAUGGUCCCAGCCUCCUCGCUGGCGCCGGCUGGGCAACAUUCUGAGGGGACCGUCCCCUCGUUAAUGGCGAAUGGGACCCA | 0.817 |
| GGCCGGCAUGGUCCCAGCCUCCUCGCUGGCGCCGGCUGGGCAACAUUCCAAGGGGACCGUCCCCUCGGUAAUGGCGAUUGGGACCCA | 0.4 |
| GGCCGGCAUGGUCCCAGCCUCCUCGCUGGCGCCGGCUGGGCAACAUUCCAAGGGCACCGUCCCCUCGGUAAUGGCGAAUGGGACCCA | 0.81 |
| GGCCGGCAUGGUCCCAGCCUCCUCGCUGGCGCCGGCUGGGCAACAUUCCAAGGGGACCGUCCCCUCGGUAAUGGCGAAUUGGACCCA | 0.233 |

| Variant | self-cleavage |
| --- | --- |
| GGCCGGCAUGGUCCCAGCCUCCUCGCUGGCGCCGGCUGGGCAACAUUCUGAGGGGACCGUCCCCUCGGUAAUGGCGAAAGGGACCCA | 0.811 |
| GGCCGGCAUGGUCCCAGCCUCCUCGCUGGCGCCGGCUGGGCAACAUUCUGAGGGCACCGUCCCCUCGGUAAUGGCGAAUGGGACCCA | 0.906 |
| GGCCGGCAUGGUCCCAGCCUCCUCGCUGGCGCCGGCUGGGCAACAUUCCAAGGGGACCGUCCCCUCGGUAAUGACGAAUGGGACCCA | 0.411 |
| GGCCGGCAUGGUCCCAGCCUCCUCGCUGGCGCCGGCUGGGCAACAUUCCAAGGGGACCGUCCCCUCGGUAAUGCCGAAUGGGACCCA | 0.242 |
| GGCCGGCAUGGUCCCAGCCUCCUCGCUGGCGCCGGCUGGGCAACAUUCCAAGGGGACCGUCCCCUCGGUAUUGGCGAAUGGGACCCA | 0.881 |
| GGCCGGCAUGGUCCCAGCCUCCUCGCUGGCGCCGGCUGGGCAACAUUCCAAGGGGACCGUCCCCUCGGUAGUGGCGAAUGGGACCCA | 0.991 |
| GGCCGGCAUGGUCCCAGCCUCCUCGCUGGCGCCGGCUGGGCAACAUUCCAAGGGGAGCGUCCCCUCGGUAAUGGCGAAUGGGACCCA | 0.886 |
| GGCCGGCAUGGUCCCAGCCUCCUCGCUGGCGCCGGCUGGGCAACAUUCCCAGGGGACCGUCCCCUCGGUAAUGGCGAAUGGGACCCA | 0.963 |
| GGCCGGCAUGGUCCCAGCCUCCUCGCUGGCGCCGGCUGGGCAACAUUCCAAGGGGACCGUCCCCUCGGUAAUGGCGAAUGGGACCCA | 0.98 |
| GGCCGGCAUGGUCCCAGCCUCCUCGCUGGCGCCGGCUGGGCAACAUUCCCAGGGGACCGUCCCCUCGGUAGUGGCGAAUGGGACCCA | 1.01 |
| GGCCGGCAUGGUCCCAGCCUCCUCGCUGGCGCCGGCUGGGCAACAUUCUGAGGGGACCGUCCCCUCGGUAAUGGCGAAUGUGACCCA | 0.314 |
| GGCCGGCAUGGUCCCAGCCUCCUCGCUGGCGCCGGCUGGGCAACAUUCCCAGGGGACCGUCCCAUCGGUAAUGGCGAAUGGGACCCA | 0.389 |
| GGCCGGCAUGGUCCCAGCCUCCUCGCUGGCGCCGGCUGGGCAACAUUCCAAGGGGACCGACCCCUCGGUAAUGGCGAAUGGGACCCA | 0.776 |
| GGCCGGCAUGGUCCCAGCCUCCUCGCUGGCGCCGGCUGGGCAACAUUCUGAGGGGACCGCCCCCUCGGUAAUGGCGAAUGGGACCCA | 1.04 |
| GGCCGGCAUGGUCCCAGCCUCCUCGCUGGCGCCGGCUGGGCAACAUUCUGAGGGGACCGACCCCUCGGUAAUGGCGAAUGGGACCCA | 0.718 |
| GGCCGGCAUGGUCCCAGCCUCCUCGCUGGCGCCGGCUGGGCAACAUUCUGAGGGGACCGGCCCCUCGGUAAUGGCGAAUGGGACCCA | 0.939 |
| GGCCGGCAUGGUCCCAGCCUCCUCGCUGGCGCCGGCUGGGCAACAUUCCAAGGGGACCGUCCCCUCGGUAAUGGCGAAUGGGACGCA | 0.878 |
| GGCCGGCAUGGUCCCAGCCUCCUCGCUGGCGCCGGCUGGGCAACAUUCCAAGGGGACCGUCCCCUCGGUAAUGGCGAAUGGGAGCCA | 0.853 |
| GGCCGGCAUGGUCCCAGCCUCCUCGCUGGCGCCGGCUGGGCAACAUUCCAAGGGGACCGUCCCCUCGGUAAUGGCGAAUGGGAACCA | 0.95 |
| GGCCGGCAUGGUCCCAGCCUCCUCGCUGGCGCCGGCUGGGCAACAUUCCAAGGGGACCGUCCCCUCAGUAAUGGCGAAUGGGACCCA | 1.17 |
| GGCCGGCAUGGUCCCAGCCUCCUCGCUGGCGCCGGCUGGGCAACAUUCCAAGGGGACCGUCCCCUCUGUAAUGGCGAAUGGGACCCA | 1.06 |
| GGCCGGCAUGGUCCCAGCCUCCUCGCUGGCGCCGGCUGGGCAACAUUCCAAGGGGACCGUCCCCUCCGUAAUGGCGAAUGGGACCCA | 0.869 |

| Variant | self-cleavage |
| --- | --- |
| GGCCGGCAUGGUCCCAGCCUCCUCGCUGGCGCCGGCUGGGCAACAUUCUGAGGGGACCGUCCCCUCGGUAAUGGCGAAUGGUACCCA | 0.47 |
| GGCCGGCAUGGUCCCAGCCUCCUCGCUGGCGCCGGCUGGGCAACAUUCUGAGGGGACCGUCCCCUCGGUAAUGGCGAAUGGCACCCA | 0.264 |
| GGCCGGCAUGGUCCCAGCCUCCUCGCUGGCGCCGGCUGGGCAACAUUCUGAGGGGACCGUCCCCUCGGUAAUGGCCAAUGGGACCCA | 0.867 |
| GGCCGGCAUGGUCCCAGCCUCCUCGCUGGCGCCGGCUGGGCAACAUUCCAAGGGGACCCUCCCCUCGGUAAUGGCGAAUGGGACCCA | 1.31 |
| GGCCGGCAUGGUCCCAGCCUCCUCGCUGGCGCCGGCUGGGCAACAUUCCAAGGGGACCGUUCCCUCGGUAAUGGCGAAUGGGACCCA | 0.649 |
| GGCCGGCAUGGUCCCAGCCUCCUCGCUGGCGCCGGCUGGGCAACAUUCCAAGGCGACCGUCCCCUCGGUAAUGGCGAAUGGGACCCA | 0.628 |
| GGCCGGCAUGGUCCCAGCCUCCUCGCUGGCGCCGGCUGGGCAACAUUCCCCGGGGACCGUCCCCUCGGUAAUGGCGAAUGGGACCCA | 0.814 |
| GGCCGGCAUGGUCCCAGCCUCCUCGCUGGCGCCGGCUGGGCAACAUUCCCAGGGGACUGUCCCCUCGGUAAUGGCGAAUGGGACCCA | 1.04 |
| GGCCGGCAUGGUCCCAGCCUCCUCGCUGGCGCCGGCUGGGCAACAUUCCCAGGGGACGGUCCCCUCGGUAAUGGCGAAUGGGACCCA | 0.796 |
| GGCCGGCAUGGUCCCAGCCUCCUCGCUGGCGCCGGCUGGGCAACAUUCCAAGGGGACCGUCCCCUCGGUAAUGGCGAAUGGGCCCCA | 0.525 |
| GGCCGGCAUGGUCCCAGCCUCCUCGCUGGCGCCGGCUGGGCAACAUUCCCAGGGGAGCGUCCCCUCGGUAAUGGCGAAUGGGACCCA | 1.12 |
| GGCCGGCAUGGUCCCAGCCUCCUCGCUGGCGCCGGCUGGGCAACAUUCCCAGGGGAUCGUCCCCUCGGUAAUGGCGAAUGGGACCCA | 1.04 |
| GGCCGGCAUGGUCCCAGCCUCCUCGCUGGCGCCGGCUGGGCAACAUUCCAAGGGGACCGUCCCCUCGGUAAGGGCGAAUGGGACCCA | 0.582 |
| GGCCGGCAUGGUCCCAGCCUCCUCGCUGGCGCCGGCUGGGCAACAUUCCAAGGGGACCGUCGCCUCGGUAAUGGCGAAUGGGACCCA | 0.219 |
| GGCCGGCAUGGUCCCAGCCUCCUCGCUGGCGCCGGCUGGGCAACAUUCCAAGGGGACCGUCACCUCGGUAAUGGCGAAUGGGACCCA | 0.694 |
| GGCCGGCAUGGUCCCAGCCUCCUCGCUGGCGCCGGCUGGGCAACAUUCCAAGGGGACCGUCCCCUCGGUAAUGGCGAAUGGGACCCC | 1.07 |
| GGCCGGCAUGGUCCCAGCCUCCUCGCUGGCGCCGGCUGGGCAACAUUCCAAGGGGCCCGUCCCCUCGGUAAUGGCGAAUGGGACCCA | 1.25 |
| GGCCGGCAUGGUCCCAGCCUCCUCGCUGGCGCCGGCUGGGCAACAUUCCAAGGGGACCGUCCCCUCGGGAAUGGCGAAUGGGACCCA | 0.76 |
| GGCCGGCAUGGUCCCAGCCUCCUCGCUGGCGCCGGCUGGGCAACAUUCCCAGGGGCCCGUCCCCUCGGUAAUGGCGAAUGGGACCCA | 0.978 |
| GGCCGGCAUGGUCCCAGCCUCCUCGCUGGCGCCGGCUGGGCAACAUUCCAAGGGGACCGUCCCCUCGGUAAUGGCGAAUGGGACCGA | 0.884 |
